This is an account of results in PMC3971960 (Biochemistry, 2014).

The data set “MALDI mass spectrometry” deals with the molecule itself. In words: MALDI mass spectrometry.
The data set “AUC” concerns the molecule itself. In words: AUC.
In another data set the target is T1, BlaI (Staphylococcus aureus, UniProt P0A042 1-126).
T1 sequence: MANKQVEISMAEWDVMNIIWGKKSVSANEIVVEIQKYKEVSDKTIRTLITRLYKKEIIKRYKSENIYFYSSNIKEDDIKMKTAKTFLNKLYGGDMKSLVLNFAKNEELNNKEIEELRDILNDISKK
The data set is described as follows: fluorescence anisotropy. A general note: In fluorescence polarisation assays a small probe gives low polarisation when free and higher when bound to something large.

Another data set addresses T2, MecI (Staphylococcus aureus NRS70 (N315), UniProt P68261 1-123).
T2 sequence: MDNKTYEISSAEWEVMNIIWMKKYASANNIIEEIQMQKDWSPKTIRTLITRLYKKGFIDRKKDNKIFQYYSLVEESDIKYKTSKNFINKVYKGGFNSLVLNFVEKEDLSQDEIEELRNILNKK
In words: fluorescence anisotropy.

A word on the stoichiometry N: it is a count of units in the complex or per binding partner. The Kd is the constant that tells how readily two partners part at equilibrium. Lower therefore signals a tighter complex.

B1: MecI (natural protein, S. aureus NRS70 (N315), UniProt P68261 1-123, looked up)
chain: T2 sequence
For B1, the “stoichiometry N” value in “MALDI mass spectrometry” is 5. Further, in the data set “AUC”, the affinity, expressed as Kd, was 300 ± 30 nM and the “stoichiometry N” value was 2.

B2: mec dsDNA (mec operator) (dsDNA)
DNA 1: ATATAAGACTACATTTGTAGTATATTACAAATGTAGTATTT
DNA 2: AAATACTACATTTGTAATATACTACAAATGTAGTCTTATAT
Regarding B2, the Kd with BlaI is 13 ± 6 nM; with MecI it was under 10 nM.
